Experimental findings from patent US20030108554A1 (published 2003) are described below.

B1: GIP130a (other)
chain: MRSRGSDTEGSAQKKFPRHTKGHSFQGPKNMKHRQQDKDSPSESDVILPCPKAEKPHSGNGHQAEDLSRDDLLFLLSILEGELQARDEVIGILKAEKMDLALLEAQYGFVTPKKVLEALQRDAFQAKSTPWQEDIYEKPMNELDKVVEKHKESYRRILGQLLVAEKSRRQTILELEEEKRKHKEYMEKSDEFICLLEQECERLKKLIDQEIKSQEEKEQEKEKRVTTLKEELTKLKSFALMVVDEQQRLTAQLTLQRQKIQELTTNAKETHTKLALAEARVQEEEQKATRLEKELQTQTTKFHQDQDTIMAKLTNEDSQNRQLQQKLAALSRQIDELEETNRSLRKAEEELQDIKEKISKGEYGNAGIMAEVEELRKRVLDMEGKDEELIKMEEQCRDLNKRLERETLQSKDFKLEVEKLSKRIMALEKLEDAFNKSKQECYSLKCNLEKERMTTKQLSQELESLKVRIKELEAIESRLEKTEFTLKEDLTKLKTLTVMFVDERKTMSEKLKKTEDKLQAASSQLQVEQNKVTTVTEKLIEETKRALKSKTDVEEKMYSVTKERDDLKNKLKAEEEKGNDLLSRVNMLKNRLQSLEAIEKDFLKNKLNQDSGKSTTALHQENNKIKELSQEVERLKLKLKDMKAIEDDLMKTEDEYETLERRYANERDKAQFLSKELEHVKMELAKYKLAEKTETSHEQWLFKRLQEEEAKSGHLSREVDALKEKIHEYMATEDLICHLQGDHSVLQKKLNQQENRNRDLGREIENLTKELERYRHFSKSLRPSLNGRRISDPQVFSKEVQTEAVDNEPPDYKSLIPLERAVINGQLYEESENQDEDPNDEGSVLSFKCSQSTPCPVNRKLWIPWMKSKEGHLQNGKMQTKPNANFVQPGDLVLSHTPGQPLHIKVTPDHVQNTATLEITSPTTESPHSYTSTAVIPNCGTPKQRITILQNASITPVKSKTSTEDLMNLEQGMSPITMATFARAQTPESCGSLTPERTMSPIQVLAVTGSASSPEQGRSPEPTEISAKHAIFRVSPDRQSSWQFQRSNSNSSSVITTEDNKIHIHLGSPYMQAVASPVRPASPSAPLQDNRTQGLINGALNKTTNKVTSSITITPTATPLPRQSQITVEPLLLPH
notes: Full length; tested as GAL4 domain fusion in yeast two-hybrid
B2: GIP130b (other)
chain: MRSRGSDTEGSAQKKFPRHTKGHSFQGPKNMKHRQQDKDSPSESDVILPCPKAEKPHSGNGHQAEDLSRDDLLFLLSILEGELQARDEVIGILKAEKMDLALLEAQYGFVTPKKVLEALQRDAFQAKSTPWQEDIYEKPMNELDKVVEKHKESYRRILGQLLVAEKSHRQTILELEEEKRKHKEYMEKSDEFICLLEQECERLKKLIDQEIKSQEEKEQEKEKRVTTLKEELTKLKSFALMVVDEQQRLTAQLTLQRQKIQELTTNAKETHTKLALAEARVQEEEQKATRLEKELQTQTTKFHQDQDTIMAKLTNEDSQNRQLQQKLAALSRQIDELEETNRSLRKAEEELQDIKEKISKGEYGNAGIMAEVEELRKRVLDMEGKDEELIKMEEQCRDLNKRLERETLQSKDFKLEVEKLSKRIMALEKLEDAFNKSKQECYSLKCNLEKERMTTKQLSQELESLKVRIKELEAIESRLEKTEFTLKEDLTKLKTLTVMFVDERKTMSEKLKKTEDKLQAASSQLQVEQNKVTTVTEKLIEETKRALKSKTDVEEKMYSVTKERDDLKNKLKAEEEKGNDLLSRVNMLKNRLQSLEAIEKDFLKNKLNQDSGKSTTALHQENNKIKELSQEVERLKLKLKDMKAIEDDLMKTEDEYETLERRYANERDKAQFLSKELEHVKMELAKYKLAEKTETSHEQWLFKRLQEEEAKSGHLSREVDALKEKIHEYMATEDLICHLQGDHSVLQKKLNQQENRNRDLGREIENLTKELERYRHFSKSLRPSLNGRRISDPQVFSKEVQTEAVDNEPPDYKSLIPLERAVINGQLYEESENQDEDPNDEGSVLSFKCSQSTPCPVNRKLWIPWMKSKEGHLQNGKMQTKPNANFVQPGDLVLSHTPGQPLHIKVTPDHVQNTATLEITSPTTESPHSYTSTAVIPNCGTPKQRITILQNASITPVKSKTSTEDLMNLEQGMSPITMATFARAQTPESCGSLTPERTMSPIQVLAVTGSASSPEQGRSPEPTEISAKHAIFRVSPDRQSSWQFQRSNSNSSSVITTEDNKIHIHLGSPYMQAVASPVRPASPSAPLQDNRTQGLINGALNKTTNKVTSSITITPTATPLPRQSQITVSNIYN
notes: as for B1
B3: GIP130c (other)
chain: B2 chain with H168R
notes: as for B1

Test in all cases: yeast two-hybrid
The series “yeast two-hybrid” deals with the molecule itself.
The target of the series “GIP130a” is B1.
The series “GIP130c” concerns the target B3.

Substitutions are numbered along the chain they refer to.

Consider B1, for which the binding result in “yeast two-hybrid” is reported as “binds”.

Regarding B2, the binding result in the series with GIP130a, in the series “yeast two-hybrid” and with GIP130c was “binds” each time.

Take B3: the binding result with GIP130a and in “yeast two-hybrid” was “binds” in each case.
